Reference: article PMC3893156

Experiments:
[1] = substrate: O=P(O)(O)O[C@H]1O[C@H](CO)[C@@H](O)[C@H](O)[C@@H]1O; experiment: Michaelis-Menten kinetics of purified enzyme; assay type: biochemical, Homo sapiens; settings: Mg2+; Man-1,6-P2 activator
[2] = substrate: O=P(O)(O)O[C@H]1O[C@H](CO)[C@@H](O)[C@H](O)[C@H]1O; experiment: Michaelis-Menten kinetics of purified enzyme; assay type: biochemical, Homo sapiens; settings: Mg2+; Glc-1,6-P2 activator

Protein	Km [1]	Km [2]
Phosphomannomutase 2 (wt-PMM2) (Homo sapiens) (protein) MAAPGPALCLFDVDGTLTAPRQKITKEMDDFLQKLRQKIKIGVVGGSDFEKVQEQLGNDVVEKYDYVFPENGLVAYKDGKLLCRQNIQSHLGEALIQDLINYCLSYIAKIKLPKKRGTFIEFRNGMLNVSPIGRSCSQEERIEFYELDKKENIRQKFVADLRKEFAGKGLTFSIGGQISFDVFPDGWDKRYCLRHVENDGYKTIYFFGDKTMPGGNDHEIFTDPRTMGYSVTAPEDTRRICELLFS	16.0 ± 1.5 µM	8.2 ± 1.4 µM
Phosphomannomutase 2 (F119L-PMM2) (Homo sapiens; F119L) (protein) MAAPGPALCLFDVDGTLTAPRQKITKEMDDFLQKLRQKIKIGVVGGSDFEKVQEQLGNDVVEKYDYVFPENGLVAYKDGKLLCRQNIQSHLGEALIQDLINYCLSYIAKIKLPKKRGTLIEFRNGMLNVSPIGRSCSQEERIEFYELDKKENIRQKFVADLRKEFAGKGLTFSIGGQISFDVFPDGWDKRYCLRHVENDGYKTIYFFGDKTMPGGNDHEIFTDPRTMGYSVTAPEDTRRICELLFS	11.8 ± 1.0 µM	15.5 ± 1.6 µM
